The data set deals with the molecule itself. Kind of data set: cryo-EM structure.

B1: Homo sapiens ferritin (apoferritin) (natural protein, human, UniProt Q8TD27 1-165, looked up)
chain: MTTASTSQVRQNYHQDSEAAINRQINLELYASYVYLSMSYYFDRDDVALKNFAKYFLHQSHEEREHAEKLMKLQNQRGGRIFLQDIKKPDCDDWESGLNAMECALHLEKNVNQSLLEFPSPISPSPSCWHHYTTNRPQPQHHLLRPRRRKRPHSIPTPILIFRSP
Consider B1, for which the binding result is “binds”.

The record behind these values is doi:10.1101/2021.03.08.434344 (bioRxiv, 2021).
